Data published in PMC9482650, “Quantitative fragmentomics allow affinity mapping of interactomes” (Nature Communications, 2022).

target: NHERF4_4, Q86UT5; experiment: holdup assay; design: key: below the threshold = too weak to quantify, mostly under pKd 3.1 to 4; settings: plain residues with an end cap or a label only (N-terminal biotin on a linker: ado-ado)
Sequence (Q86UT5 464-550): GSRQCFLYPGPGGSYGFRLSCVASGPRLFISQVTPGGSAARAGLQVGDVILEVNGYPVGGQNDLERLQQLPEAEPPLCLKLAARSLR

Binder | pKd
SPDRDRESIV [SCN5A, Q14524] | 3.88

target: TJP1_3, Q07157; experiment: holdup assay; design: key: below the threshold = too weak to quantify, mostly under pKd 3.1 to 4; settings: plain residues with an end cap or a label only (N-terminal biotin on a linker: ado-ado)
Sequence (Q07157 416-512): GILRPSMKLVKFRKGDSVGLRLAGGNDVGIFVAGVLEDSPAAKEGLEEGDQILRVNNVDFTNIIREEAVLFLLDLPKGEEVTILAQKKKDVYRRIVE

Binder | pKd
SPDRDRESIV [SCN5A, Q14524] | below the threshold

target: T1, LIN7A, O14910; experiment: holdup assay; design: key: below the threshold = too weak to quantify, mostly under pKd 3.1 to 4; settings: plain residues with an end cap or a label only (N-terminal biotin on a linker: ado-ado)
T1 sequence (O14910 103-200, limits assumed, looked up): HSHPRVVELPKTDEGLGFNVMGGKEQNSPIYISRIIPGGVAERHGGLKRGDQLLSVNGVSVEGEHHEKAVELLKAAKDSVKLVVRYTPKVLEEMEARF

Binder | pKd
SPDRDRESIV [SCN5A, Q14524] | below the threshold

target: GRIP2_7, Q9C0E4; experiment: holdup assay; design: key: below the threshold = too weak to quantify, mostly under pKd 3.1 to 4; settings: plain residues with an end cap or a label only (N-terminal biotin on a linker: ado-ado)
Sequence (Q9C0E4 934-1023): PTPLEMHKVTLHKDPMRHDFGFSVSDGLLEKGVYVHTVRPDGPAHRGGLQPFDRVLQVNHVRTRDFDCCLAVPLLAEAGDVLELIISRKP

Binder | pKd
SPDRDRESIV [SCN5A, Q14524] | below the threshold

target: T2, RADIL, Q96JH8; experiment: holdup assay; design: key: below the threshold = too weak to quantify, mostly under pKd 3.1 to 4; settings: plain residues with an end cap or a label only (N-terminal biotin on a linker: ado-ado)
T2 sequence (Q96JH8 971-1071, limits assumed, looked up): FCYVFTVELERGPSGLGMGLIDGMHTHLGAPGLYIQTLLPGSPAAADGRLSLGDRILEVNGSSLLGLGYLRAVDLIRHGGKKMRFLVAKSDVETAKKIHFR

Binder | pKd
SPDRDRESIV [SCN5A, Q14524] | 4.12

target: GRID2IP_1, A4D2P6; experiment: holdup assay; design: key: below the threshold = too weak to quantify, mostly under pKd 3.1 to 4; settings: plain residues with an end cap or a label only (N-terminal biotin on a linker: ado-ado)
Sequence (A4D2P6 1-87): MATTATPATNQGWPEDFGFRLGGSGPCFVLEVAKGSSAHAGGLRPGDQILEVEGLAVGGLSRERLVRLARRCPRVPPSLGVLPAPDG

Binder | pKd
SPDRDRESIV [SCN5A, Q14524] | below the threshold

target: TJP1_2, Q07157; experiment: holdup assay; design: key: below the threshold = too weak to quantify, mostly under pKd 3.1 to 4; settings: plain residues with an end cap or a label only (N-terminal biotin on a linker: ado-ado)
Sequence (Q07157 181-274): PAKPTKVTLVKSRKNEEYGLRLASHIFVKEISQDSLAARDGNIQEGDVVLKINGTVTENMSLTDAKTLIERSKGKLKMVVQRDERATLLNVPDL

Binder | pKd
SPDRDRESIV [SCN5A, Q14524] | 3.49

target: GIPC2, Q8TF65; experiment: holdup assay; design: key: below the threshold = too weak to quantify, mostly under pKd 3.1 to 4; settings: plain residues with an end cap or a label only (N-terminal biotin on a linker: ado-ado)
Sequence (Q8TF65 112-203): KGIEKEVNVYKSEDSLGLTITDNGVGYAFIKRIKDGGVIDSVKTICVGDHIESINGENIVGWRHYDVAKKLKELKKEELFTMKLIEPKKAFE

Binder | pKd
SPDRDRESIV [SCN5A, Q14524] | 4.06

target: LDB3, O75112; experiment: holdup assay; design: key: below the threshold = too weak to quantify, mostly under pKd 3.1 to 4; settings: plain residues with an end cap or a label only (N-terminal biotin on a linker: ado-ado)
Sequence (O75112 1-94): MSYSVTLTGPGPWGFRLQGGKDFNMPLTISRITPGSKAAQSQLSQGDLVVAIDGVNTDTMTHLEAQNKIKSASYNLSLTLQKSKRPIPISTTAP

Binder | pKd
SPDRDRESIV [SCN5A, Q14524] | below the threshold

target: GOPC, Q9HD26; experiment: holdup assay; design: key: below the threshold = too weak to quantify, mostly under pKd 3.1 to 4; settings: plain residues with an end cap or a label only (N-terminal biotin on a linker: ado-ado)

Binder | pKd
SPDRDRESIV [SCN5A, Q14524] | 3.7

target: DLG1_3, Q12959; experiment: holdup assay; design: key: below the threshold = too weak to quantify, mostly under pKd 3.1 to 4; settings: plain residues with an end cap or a label only (N-terminal biotin on a linker: ado-ado)

Binder | pKd
SPDRDRESIV [SCN5A, Q14524] | below the threshold

target: DLG1_1, Q12959; experiment: holdup assay; design: key: below the threshold = too weak to quantify, mostly under pKd 3.1 to 4; settings: plain residues with an end cap or a label only (N-terminal biotin on a linker: ado-ado)

Binder | pKd
SPDRDRESIV [SCN5A, Q14524] | 4.28

target: T3, TIAM2, Q8IVF5; experiment: holdup assay; design: key: below the threshold = too weak to quantify, mostly under pKd 3.1 to 4; settings: plain residues with an end cap or a label only (N-terminal biotin on a linker: ado-ado)
T3 sequence (Q8IVF5 885-986, limits assumed, looked up): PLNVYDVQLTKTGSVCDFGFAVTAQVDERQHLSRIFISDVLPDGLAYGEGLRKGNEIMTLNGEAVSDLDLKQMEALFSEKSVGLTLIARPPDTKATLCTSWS

Binder | pKd
SPDRDRESIV [SCN5A, Q14524] | below the threshold

target: DLG2_3, Q15700; experiment: holdup assay; design: key: below the threshold = too weak to quantify, mostly under pKd 3.1 to 4; settings: plain residues with an end cap or a label only (N-terminal biotin on a linker: ado-ado)

Binder | pKd
SPDRDRESIV [SCN5A, Q14524] | below the threshold

target: Inadl_1, Q8NI35; experiment: holdup assay; design: key: below the threshold = too weak to quantify, mostly under pKd 3.1 to 4; settings: plain residues with an end cap or a label only (N-terminal biotin on a linker: ado-ado)
Sequence (Q8NI35 113-229): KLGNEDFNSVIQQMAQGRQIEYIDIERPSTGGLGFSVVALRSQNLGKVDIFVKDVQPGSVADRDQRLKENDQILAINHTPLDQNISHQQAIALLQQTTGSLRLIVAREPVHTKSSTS

Binder | pKd
SPDRDRESIV [SCN5A, Q14524] | below the threshold

target: MAGI2_2, Q86UL8; experiment: holdup assay; design: key: below the threshold = too weak to quantify, mostly under pKd 3.1 to 4; settings: plain residues with an end cap or a label only (N-terminal biotin on a linker: ado-ado)
Sequence (Q86UL8 410-522): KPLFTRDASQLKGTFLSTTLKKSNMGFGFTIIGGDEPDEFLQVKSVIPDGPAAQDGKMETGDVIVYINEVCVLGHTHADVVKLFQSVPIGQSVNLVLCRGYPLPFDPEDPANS

Binder | pKd
SPDRDRESIV [SCN5A, Q14524] | 4.26

target: T4, MPDZ_10, O75970; experiment: holdup assay; design: key: below the threshold = too weak to quantify, mostly under pKd 3.1 to 4; settings: plain residues with an end cap or a label only (N-terminal biotin on a linker: ado-ado)
T4 sequence (O75970 1624-1722, limits assumed, looked up): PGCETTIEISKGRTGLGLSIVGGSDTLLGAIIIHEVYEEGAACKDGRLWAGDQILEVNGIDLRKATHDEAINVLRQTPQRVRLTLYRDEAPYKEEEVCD

Binder | pKd
SPDRDRESIV [SCN5A, Q14524] | 3.55

target: T5, NHERF3_1, Q5T2W1; experiment: holdup assay; design: key: below the threshold = too weak to quantify, mostly under pKd 3.1 to 4; settings: plain residues with an end cap or a label only (N-terminal biotin on a linker: ado-ado)
T5 sequence (Q5T2W1 4-100, limits assumed, looked up): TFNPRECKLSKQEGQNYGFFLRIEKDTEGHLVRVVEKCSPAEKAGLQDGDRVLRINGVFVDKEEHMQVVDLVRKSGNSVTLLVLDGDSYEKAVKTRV

Binder | pKd
SPDRDRESIV [SCN5A, Q14524] | 3.72

target: GORASP2, Q9H8Y8; experiment: holdup assay; design: key: below the threshold = too weak to quantify, mostly under pKd 3.1 to 4; settings: plain residues with an end cap or a label only (N-terminal biotin on a linker: ado-ado)

Binder | pKd
SPDRDRESIV [SCN5A, Q14524] | 3.88

target: T6, PCLO, Q9Y6V0; experiment: holdup assay; design: key: below the threshold = too weak to quantify, mostly under pKd 3.1 to 4; settings: plain residues with an end cap or a label only (N-terminal biotin on a linker: ado-ado)
T6 sequence (Q9Y6V0 4491-4600, limits assumed, looked up): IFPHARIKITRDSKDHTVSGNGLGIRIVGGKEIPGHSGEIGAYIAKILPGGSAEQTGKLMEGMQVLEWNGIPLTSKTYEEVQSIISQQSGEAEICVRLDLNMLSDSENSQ

Binder | pKd
SPDRDRESIV [SCN5A, Q14524] | below the threshold

target: SCRIB_3, Q14160; experiment: holdup assay; design: key: below the threshold = too weak to quantify, mostly under pKd 3.1 to 4; settings: plain residues with an end cap or a label only (N-terminal biotin on a linker: ado-ado)
Sequence (Q14160 999-1103): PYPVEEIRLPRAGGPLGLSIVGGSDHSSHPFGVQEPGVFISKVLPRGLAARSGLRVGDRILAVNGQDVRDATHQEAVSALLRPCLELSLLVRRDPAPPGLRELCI

Binder | pKd
SPDRDRESIV [SCN5A, Q14524] | 3.86

target: DLG2_2, Q15700; experiment: holdup assay; design: key: below the threshold = too weak to quantify, mostly under pKd 3.1 to 4; settings: plain residues with an end cap or a label only (N-terminal biotin on a linker: ado-ado)

Binder | pKd
SPDRDRESIV [SCN5A, Q14524] | 4.58

target: MAGI2_3, Q86UL8; experiment: holdup assay; design: key: below the threshold = too weak to quantify, mostly under pKd 3.1 to 4; settings: plain residues with an end cap or a label only (N-terminal biotin on a linker: ado-ado)
Sequence (Q86UL8 600-682): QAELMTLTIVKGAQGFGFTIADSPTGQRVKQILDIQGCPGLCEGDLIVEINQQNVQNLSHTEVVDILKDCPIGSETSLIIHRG

Binder | pKd
SPDRDRESIV [SCN5A, Q14524] | 4.02

target: T7, GRIP1_3, Q9Y3R0; experiment: holdup assay; design: key: below the threshold = too weak to quantify, mostly under pKd 3.1 to 4; settings: plain residues with an end cap or a label only (N-terminal biotin on a linker: ado-ado)
T7 sequence (Q9Y3R0 247-346, limits assumed, looked up): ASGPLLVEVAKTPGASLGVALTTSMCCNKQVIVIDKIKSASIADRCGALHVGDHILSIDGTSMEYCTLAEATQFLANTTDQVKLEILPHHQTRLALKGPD

Binder | pKd
SPDRDRESIV [SCN5A, Q14524] | below the threshold

target: AHNAK1, Q09666; experiment: holdup assay; design: key: below the threshold = too weak to quantify, mostly under pKd 3.1 to 4; settings: plain residues with an end cap or a label only (N-terminal biotin on a linker: ado-ado)
Sequence (Q09666 4-100): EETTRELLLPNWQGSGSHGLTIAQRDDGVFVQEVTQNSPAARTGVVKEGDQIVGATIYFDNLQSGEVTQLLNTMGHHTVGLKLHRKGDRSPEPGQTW

Binder | pKd
SPDRDRESIV [SCN5A, Q14524] | below the threshold

target: T8, APBA1_1, Q02410; experiment: holdup assay; design: key: below the threshold = too weak to quantify, mostly under pKd 3.1 to 4; settings: plain residues with an end cap or a label only (N-terminal biotin on a linker: ado-ado)
T8 sequence (Q02410 651-752, limits assumed, looked up): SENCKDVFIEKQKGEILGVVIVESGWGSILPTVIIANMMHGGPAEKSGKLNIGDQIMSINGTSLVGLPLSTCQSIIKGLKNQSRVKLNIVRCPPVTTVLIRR

Binder | pKd
SPDRDRESIV [SCN5A, Q14524] | below the threshold

target: T9, GRIP1_7, Q9Y3R0; experiment: holdup assay; design: key: below the threshold = too weak to quantify, mostly under pKd 3.1 to 4; settings: plain residues with an end cap or a label only (N-terminal biotin on a linker: ado-ado)
T9 sequence (Q9Y3R0 999-1096, limits assumed, looked up): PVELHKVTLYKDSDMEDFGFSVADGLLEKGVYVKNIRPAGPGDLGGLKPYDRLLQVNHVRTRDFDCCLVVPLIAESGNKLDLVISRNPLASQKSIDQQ

Binder | pKd
SPDRDRESIV [SCN5A, Q14524] | below the threshold

target: T10, GRIP1_2, Q9Y3R0; experiment: holdup assay; design: key: below the threshold = too weak to quantify, mostly under pKd 3.1 to 4; settings: plain residues with an end cap or a label only (N-terminal biotin on a linker: ado-ado)
T10 sequence (Q9Y3R0 145-248, limits assumed, looked up): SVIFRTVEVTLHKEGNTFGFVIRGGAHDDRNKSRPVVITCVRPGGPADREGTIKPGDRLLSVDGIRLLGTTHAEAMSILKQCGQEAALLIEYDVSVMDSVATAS

Binder | pKd
SPDRDRESIV [SCN5A, Q14524] | below the threshold
